Reference: publication doi:10.1101/750265

Target: dominant negative RACB-T20N, split-YFP fusion for BiFC (barley (Hordeum vulgare))
Test: split reporter

BiFC signal relative to that with CA RACB: < 10%
Substance: RIPb, full length, split-YFP fusion for BiFC (natural protein)
